From article PMC5700921

Target: T1, β-klotho (UniProt Q99N32)
T1 sequence: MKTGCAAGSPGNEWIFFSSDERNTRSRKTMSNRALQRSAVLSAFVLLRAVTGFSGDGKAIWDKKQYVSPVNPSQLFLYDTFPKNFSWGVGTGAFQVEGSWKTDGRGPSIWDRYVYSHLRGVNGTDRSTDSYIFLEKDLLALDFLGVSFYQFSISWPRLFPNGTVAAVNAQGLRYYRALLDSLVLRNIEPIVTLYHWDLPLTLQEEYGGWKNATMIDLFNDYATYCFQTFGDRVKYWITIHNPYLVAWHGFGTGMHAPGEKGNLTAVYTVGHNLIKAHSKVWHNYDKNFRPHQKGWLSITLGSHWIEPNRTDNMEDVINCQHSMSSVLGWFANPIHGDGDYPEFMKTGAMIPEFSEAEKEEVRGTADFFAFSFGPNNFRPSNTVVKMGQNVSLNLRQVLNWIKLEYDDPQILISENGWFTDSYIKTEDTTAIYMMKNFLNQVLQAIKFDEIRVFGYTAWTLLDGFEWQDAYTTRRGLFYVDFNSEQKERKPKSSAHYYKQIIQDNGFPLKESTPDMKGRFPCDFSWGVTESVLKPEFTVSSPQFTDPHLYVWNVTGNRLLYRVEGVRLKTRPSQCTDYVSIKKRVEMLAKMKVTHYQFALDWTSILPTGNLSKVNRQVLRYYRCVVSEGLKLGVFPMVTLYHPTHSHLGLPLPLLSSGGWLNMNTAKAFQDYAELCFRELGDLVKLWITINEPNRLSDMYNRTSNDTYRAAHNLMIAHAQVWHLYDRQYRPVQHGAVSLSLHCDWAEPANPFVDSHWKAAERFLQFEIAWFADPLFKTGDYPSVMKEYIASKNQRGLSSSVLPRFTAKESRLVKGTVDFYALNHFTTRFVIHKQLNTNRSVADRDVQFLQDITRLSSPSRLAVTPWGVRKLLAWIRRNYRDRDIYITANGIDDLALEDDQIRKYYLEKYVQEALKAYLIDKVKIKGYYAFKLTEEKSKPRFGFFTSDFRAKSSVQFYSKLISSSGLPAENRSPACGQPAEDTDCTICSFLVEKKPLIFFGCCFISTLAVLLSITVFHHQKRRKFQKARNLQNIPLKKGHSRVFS

purified human fibroblast growth factor 21 (hFGF21), tag-free after TEV cleavage of MBP-hFGF21 (from UniProt Q9NSA1 29-209) (ligand)
EC50 of proliferation (MTT assay, 24 h) of β-klotho-transfected NIH-3T3 cells, hFGF21 at 0.01-500 ng/mL; untransfected cells showed no proliferative effect (data not shown): 0.3 nM
